Source: paper PMC9750922, “Improvement of thermoalkaliphilic laccase (CtLac) by a directed evolution and application to lignin degradation” (Applied Microbiology and Biotechnology, 2022)
Substitutions are numbered along the chain they refer to. In names and notes the source's numbering stands.

B1: CtLac (Caldalkalibacillus thermarum TA2.A1) (protein)
chain: MKRILTLVLLLTVFIIVLVGCSTSPVDHSKMVHGEDDSTDNKQQEETQQIETSEGKVVINLEAKVTHWMFNNDLMEDIWTYNGSLPGQEIRVQEGDHVVINLTNSLDVPTSLHLHGVPVPNEMDGVPGVTQNAIMPGETFTYEFVADTPGTYWYHSHQDGANQIGMGLYGALVVEHKDQPDYDLDQVIMIDEWSSMGMADMDHSGMDHGDHGNMGDNSDQPPHAEMMNMMYDTLIVNGKASPVIEAIGVSEDDTIKLRFVNTGLFTQVITIPGHEFKVTHYDGQQVNEPELISDTAIRIAPAERYDVEIEMNQPGAWGIQIYAEENENLRGIVPLVYAGFEDEELQTADSIQSFLDISAYGSPMNVNFGEITKEFDMILGSDDGGETFTINGKQMTTKGFESHEDHEIYEVEEGDVVKVNIVNDTDVDHPMHLHGHFFYVVSRNGQPVKGSPILKETLNVRPNEAYEIVFVADNPGHWMFHCHELHHASGGMVSEVRYSGYTPAFTPDPNIPNKPE
notes: 516 aa, full-length gene incl; N-terminal region in pET28a(+) (NdeI/XhoI), His-tagged, E. coli BL21(DE3), HisTrap purified; primers encode N-terminus MKRILTLVL and C-terminus IPNKPE
B2: CtLac (Caldalkalibacillus thermarum TA2.A1; V243M) (protein)
chain: B1 chain with V243M
notes: as for B1
B3: CtLac (Caldalkalibacillus thermarum TA2.A1; V243D) (protein)
chain: B1 chain with V243D
notes: as for B1

Each protein was assayed on COc1cccc(OC)c1O (assay: purified protein). Conditions: 25 °C, pH 8.0, citrate phosphate buffer 50 mM, 1 mM CuCl2, air O2.
Format: biochemical, Caldalkalibacillus thermarum

Row | Protein | Km | kcat | kcat/Km
1 | B1 | 157.2 µM | 1.1 s⁻¹ | 7000 M⁻¹ s⁻¹
2 | B2 | 674.2 µM | 0.1 s⁻¹ | 100 M⁻¹ s⁻¹
3 | B3 | 137.2 µM | 2.7 s⁻¹ | 20000 M⁻¹ s⁻¹
